According to the DeepSol protein solubility set:

Test: soluble on expression in E. coli; label from the status in PepcDB or PDB records
In the case of “MGSDKIHHHHHHMSMKISEKKFNDRVGDGIQDSFMRGAVSSAQTRLYTNRLKAADELGNWEEWRELGEEIRQHTLENLDYYLMQLSENVSKRGGHVYFAKTKEEAAKYIQDVAKKKQAKKVVKSKSMVTEEISMNHALEEIGCEVLESDLGEYILQVDNDPPSHIIAPALHKNRTQIRDVFKEKLGYENSDDPYEMTKFVRKQLREKFMDAEIGVTGCNFAVANTGSLCLVTNEGNADLVMSIPKTQIAVMGMERMVPTMEELDVLVGLLCRSAVGQKLTSYVTVAGPIQEEEVDGPEEFHLVVVDNGRSQILGSEFRQVLQCIRCAACVNVCPVYRHVGGHSYGSIYSGPIGAVLTPLLGGYDDYKELPYASSLCGACTEACPVKIPLHDLLLKHRQVIVEQEGRAPLAEKLAMKMFSMGASSAALYKMGSKMAPAAMSPFTSGNRVSKGVGPLKNWTDIREFPAPSKERFRDWYKDHKKGGDK”, the “soluble on expression in E. coli” value is reported as “not soluble”.
With “MNSSLSLLHPYPFEKLNVLFKDVTPADLPLIPLSIGEPKHPAPEFVKQAIIDNFNHLSTYPNSKGLPELRESIARWLTQRFQLNHISSEDHILPVTGTREGIFSFVQALINRDEAPYVVMPNPFYQIYEGATLLAGAKPYFINCTAENDYLGDFDAVPSEVWEKTALLFVCTPGNPTGAVLSKEKLKKLIQLSDQYNFVIASDECYSELWFDQAPVGLLEVCAEIGRDNYKNCIVFHSLSKRSNLPGMRSGFVAGDAELLKPYLKFRTYHGAAMPVQHQLASIAAWNDEAHVEENRQQYRAKFNLFQSELGQLIPLKKPDAGFYYWLHVDNDEAFAKMLMEKAHIKVLPGRYLSRETEQGNPGENHVRMALVADLAQCEQVVQRLKKVL” the “soluble on expression in E. coli” value was “not soluble”.
In the case of “MHATSRVAWFWRPSCQSFIRKMPCRPIVLSGPSGGGKSTILTRAMQEYPNSFAFSVSHTTRQPRAGEEHGKHYYFTEKEKMQEMIKNNEFLEFATFSGNTYGTSKKTVLEIENSGKICVLDIELQGVRNIKNSHLDARYILIRAPSIKLLEERLRARGTETEESLSKRLQHASEDLVEIEKNPTLFDKVIVNDDLERAYKEFVDLLRDDLEKTSKK”, the “soluble on expression in E. coli” value is reported as “not soluble”.
With “PADLSGTWTLLSSDNFEGYMLALGIDFATRKIAKLLKPQKVIEQNGDSFTIHTNSSLRNYFVKFKVGEEFDEDNRGLDNRKCKSLVIWDNDRLTCIQKGEKKNRGWTHWIEGDKLHLEMFCEGQVCKQTFQRA” the “soluble on expression in E. coli” value was “soluble”.
In the case of “MGSDKIHHHHHHMFIENYCPISADRISFTRQQGSDFAKQVADDFNPLHNIDAKRFCVPGDLLFSIIIAKSGLHKNMTFDFSGMVSDDVHLTFPQEIDESFDIKDDKDKTCLSVHVSGDKTHESVLINALTKAYVDFSGHTFPDILVKLMADNSVMINPARPMVMYQSMSIDLHTLTAETVTLKLAKTSLSIEGKRGDAWLEFDLLSNDKVIGHGKKHMLLSGLRTYEQETIDAMVNQYRDSKKNYQA”, the “soluble on expression in E. coli” value is reported as “not soluble”.
For “MTARTITDVITRPLPPLPLTAAASAEVLPDWAQPARRHPAAQPWPENLTRMAVGVVDSTGATGWFGPVSATVARMVFDQVAPAVIGRELAAWRAMASLAPHGRHRQGAHLRLAVSAVELAAWDLRSHATGVPVGALLAGERRERIPVYATALGIDIDHPLAPDIAAWLVDEGFWAQKWGLPGAARGETPRADAARLRRLREAAGERARIGVDVGGRWPADYARQMLPVLAEAGVCWVEEPGPISDADLARHGLARAAGEHDYEPTDQLRTLGGDIQIWQPDPTWCGGLAHTLSMVELAARLNIRSLPHGSGLAAALALAASAPAAAVPAIEYHLTLEPLRQDHQLDPLVPAAGHLDARTAAGLTSGYRFGEGDAGAAA”, the “soluble on expression in E. coli” value was “soluble”.
With “MERTGFLEYVLNYVKKGVELGGFPEDFYKILSRPRRVLIVNIPVRLDGGGFEVFEGYRVQHCDVLGPYKGGVRFHPEVTLADDVALAILMTLKNSLAGLPYGGAKGAVRVDPKKLSQRELEELSRGYARAIAPLIGDVVDIPAPDVGTNAQIMAWMVDEYSKIKGYNVPGVFTSKPPELWGNPVREYATGFGVAVATREMAKKLWGGIEGKTVAIQGMGNVGRWTAYWLEKMGAKVIAVSDINGVAYRKEGLNVELIQKNKGLTGPALVELFTTKDNAEFVKNPDAIFKLDVDIFVPAAIENVIRGDNAGLVKARLVVEGANGPTTPEAERILYERGVVVVPDILANAGGVIMSYLEWVENLQWYIWDEEETRKRLENIMVNNVERVYKRWQREKGWTMRDAAIVTALERIYNAMKIRGWI” the “soluble on expression in E. coli” value was “soluble”.
With “MLMSIREDVVEATSSIVPEKIHSDARNFSLVTSSSQVRSPLYLKSLDADGEDNSTVEKQITHSKKVADTELDRSLECLKENENDVKTNGEVELSAVEDALIQVVPEVSENQNPRKIGPYDFDQHANFLNS” the “soluble on expression in E. coli” value was “not soluble”.
With “GPGSMSLLKGKEVEVTQDDQRRICIFARMHRRRKELTATITRLKEQAAKLSDASDELMIADGAMYLFGETFVAIDNDEAGEWLAKEQAQLQRDQETTEEELKLVESQLSDLKAKLYASLGSQVYLEDE” the “soluble on expression in E. coli” value was “soluble”.
With “MPANELFGDSDPEGDEIFERVRKVQPKSINVTENQKVDPMRKVKIELQAVLVAEKIPISTEEIRRRLLDSYGACPDPKRYNCSTLDDLLQACSESIVHTFGRDGIHRYGPRTTEANQDIIEMVQQQSSSKRPARSFLGSGATNNLSTHGSSFRAFRGPYASEEIAKSRGTPEQFKARHKLGPAKTISRVKNLAEVLKEYADEIGVSHPDEPNRKIVTLAALANKFKQLYCLPAWGKNISESELYIQLNVPPFNEYLHFWRLSEKGDIFVDCIDRDNADPTQKSEQNPSADVSIQSESFGGKSSASAFEQSVVSAPSTIRDQTSDSFDGFNSFEVPPENGSKDSKIFNSNQESIDDYPGNAISRDRTADMTDIALRFGTVSVASQQCPVSSSLVPQNGILRQSRAQEDDNNTSILTIQSSRRNHSVLRHRTIKPRNPTQNLAEVVKTHGSIPYEALSDCDKIIVDLGKNIFKVYATQPGEMMVRLCDPHVDTTTLPLLENNLRDPVESDLRWMTLGNSHIKKQSVKVVKPAMFIAPRGFLLILKDEEREEMDVEKVATMGNILRAVMVAPIVELQRETVRTGSAAVYVYRQGAEVRYYRVLIVGQAKQDGEVLVLLADVDDQYFVDVHLSHLFPIPEEASFKHFPSNVVFATLHGVLGLTLSEQDVMFENIDNDDTKRFVGGYFHGNDDRILNIDMVWKNERGQFEWLSQIVKRRGAVTSSDANIIHFPHSALDVIKSVGPDCSVCFVDYSVRDESATSSLMESTRIVHDSRESMTTTYVGEMPSPIIEEIDATSSFDPKLLNLHSLFDKLIEEQNVTMIVGMFQFVRSLKDLFGDNNEWERLLTYMLTTGKNNNIRL” the “soluble on expression in E. coli” value was “not soluble”.
With “MAHHHHHHMPVSHHEGCGCKNSDEVLKGGEFLLKYINIDKVTALNEKTHGSCRKILKSYDNRLSPDNCESDVDHELIINIPFNSPCKISSLFLIGGEEGTYPRKIKIFSNREDIDFGNINDFKCVQELELSQDFHGSIEYPLKVTSLFNVSYLTLYFYENYGADTTKIFYIGLKGVGTNYIRKAVETVYEASPNLSDHKIEGSSKAAHFRFDAF” the “soluble on expression in E. coli” value was “soluble”.
With “MWSTIFFVFSTFVLIVDSGSVGLCRTECIEQNSRKIVRVHLKDQLVMAGLCNNNTQQTGSIVTPYVCHRNIGLWTLDELDEEGTVKFETLCPTPEQYPLELRATCPRVDAQHDDTPNEMDIDDYPNSGDTPLSVV” the “soluble on expression in E. coli” value was “not soluble”.
For “MSLSQKNNNELPKQAAENTLNLNPVIGIRGKDLLTSARMVLLQAVRQPLHSARHVAHFSLELKNVLLGQSELRPGDDDRRFSDPAWSQNPLYKRYMQTYLAWRKELHSWISHSDLSPQDISRGQFVINLLTEAMSPTNSLSNPAAVKRFFETGGKSLLDGLGHLAKDLVNNGGMPSQVDMDAFEVGKNLATTEGAVVFRNDVLELIQYRPITESVHERPLLVVPPQINKFYVFDLSPDKSLARFCLRNGVQTFIVSWRNPTKSQREWGLTTYIEALKEAIEVVLSITGSKDLNLLGACSGGITTATLVGHYVASGEKKVNAFTQLVSVLDFELNTQVALFADEKTLEAAKRRSYQSGVLEGKDMAKVFAWMRPNDLIWNYWVNNYLLGNQPPAFDILYWNNDTTRLPAALHGEFVELFKSNPLNRPGALEVSGTPIDLKQVTCDFYCVAGLNDHITPWESCYKSARLLGGKCEFILSNSGHIQSILNPPGNPKARFMTNPELPAEPKAWLEQAGKHADSWWLHWQQWLAERSGKTRKAPASLGNKTYPAGEAAPGTYVHEREGHHHHHH”, the “soluble on expression in E. coli” value was “soluble”.
In the case of “MDPLVSFFDGMAQASWLRPVHDRLKKGTGSWANRAVLDVGCGTGRLLARGVHEAAHLAGVDLSKQMVLATEERLHEHKQCGRLTVVQGDAYDLPFADESFDVCLSTCVMFLLPEPERGMKEMIRVLNGAGVIGMLNPTNKMNHAAAKAYCKKSGITGFEEKTLLQWSNVSTRRHRYTAEQLTHFFKQHGAWVVTHELVLDGLAVVTVASWNKLEHHHHHH”, the “soluble on expression in E. coli” value is reported as “not soluble”.
For “AHHHHHHGSIIAITGTPGVGKTTVARKLAEKLGCKYVNLRDFALEKGIGEVKGDELEVEVDELAYFVEKEFKGKNVVLDGHLSHLMPADLVIVLRAHPKTIAERLKERGYSKDKIGENVEAELVDVILIEALDEHENVIEVDTTGKTPEEVVNEILNLINSGIKRRVGIVDWTKVYEEIIPYLRLGGD”, the “soluble on expression in E. coli” value was “not soluble”.
For “MGSDKIHHHHHHMIVGGLWMHLNEGSTPMDKYIEITAQKSRMYLLPDSSKVWMQPGSSIRFAEDFKKHRNVWLKGNSLFEVHKNMGRKFRVYIDKAFIEVKGTCFLIKQNNPSANEITLFNGSIEFNVESTQHKIEMKPLQELVYNPADAGTQLRQIENIEWQNGRYNFTQFNLEHLTRIINQMYGSRIIISDKVNKNCAFTGSIRYDESLEDVIDKICFSLNLRKKEINHEIIIYN”, the “soluble on expression in E. coli” value was “not soluble”.
For “SDIEHILTAIAVLLEKRLDYDRGVIMMADAGGSALRVLASYGFDEAGRRVMHETPIALDGVGPRGVVAASFLDQKPFLVNDLDEINHLIPPLHRELGRRLGIRSFISCPIVCEGQSLGVLAVDTIRTG”, the “soluble on expression in E. coli” value was “not soluble”.
For “KTKLNITMEEDTEVLDEVVVVGYGAQKKESVVGAISQVSSKELLKSPAANISQAIAGKISGVITSQTSGAPGADDMKIYIRGRASFAGDNQPLILVDGVEREFSQIAPDDIESISTLKDASATAVYGVRGANGVMLITTKRGKEQK”, the “soluble on expression in E. coli” value was “not soluble”.
In the case of “MKPRKQDEKILSDQYSYFEPIISDSCDIKFDGDKRRIGSIFISHEEICFIRKEEDYIFKISLSDVVDYNTVVTIWKNQASLTLNDNRKITFYFVTNSPLTGFISILKTYMQLSRNKETIIPDDNLLINDDDEQTKVEIFDVVGLNYEGRRKELKKLIKKMKTNDAFFFLYSDLKGNELKEELLYEDKVYEIPDYEVIPGVFLQKEPDNPYDENAIKVMISNEYSEFHVGYVPREYASRLVNYIEDTVSCNAYINGGKYKTLDYLEEKIVTKESDYGLRIHVEYKVLEHHHHHH”, the “soluble on expression in E. coli” value is reported as “soluble”.
With “MSLSLSSIIKNIPKAELHLHIEGSLTPELMWRLAEKHSVSLPYASVEEIEAAYNFEDLQSFLDLYYAGAGVLRDEDDFFALMWEYLTRCHEDNIVHTEIMFDPQTHTERDIGFDIFMPGFLKAMEKAKDEYGISSYLIMSFLRHLPEDAAFDTLSAAEPYYEHITAVGLDSSELGHPPSKFERVFKKAKALGFKIVAHAGEEGPASYIWEAIELLDVDRIDHGVRCQEDEALMDLLKERQIPLTVCPLSNLKLCVINDMKDHNIVQLLDAGLLVTVNSDDPTYFGGFLNDNFEALHQSLGIDEKTVRTLVANSFKASFLPQEQKNQLVEKVLSAEGHHHHHH” the “soluble on expression in E. coli” value was “soluble”.
